From US20200297818A1 (ZEALAND PHARMA A S, published 2020)
Residue numbers refer to the chain shown, from its start.

T1: human GLP-2 receptor (hGLP2-R) (human, UniProt O95838 1-553)
T1 sequence (looked up): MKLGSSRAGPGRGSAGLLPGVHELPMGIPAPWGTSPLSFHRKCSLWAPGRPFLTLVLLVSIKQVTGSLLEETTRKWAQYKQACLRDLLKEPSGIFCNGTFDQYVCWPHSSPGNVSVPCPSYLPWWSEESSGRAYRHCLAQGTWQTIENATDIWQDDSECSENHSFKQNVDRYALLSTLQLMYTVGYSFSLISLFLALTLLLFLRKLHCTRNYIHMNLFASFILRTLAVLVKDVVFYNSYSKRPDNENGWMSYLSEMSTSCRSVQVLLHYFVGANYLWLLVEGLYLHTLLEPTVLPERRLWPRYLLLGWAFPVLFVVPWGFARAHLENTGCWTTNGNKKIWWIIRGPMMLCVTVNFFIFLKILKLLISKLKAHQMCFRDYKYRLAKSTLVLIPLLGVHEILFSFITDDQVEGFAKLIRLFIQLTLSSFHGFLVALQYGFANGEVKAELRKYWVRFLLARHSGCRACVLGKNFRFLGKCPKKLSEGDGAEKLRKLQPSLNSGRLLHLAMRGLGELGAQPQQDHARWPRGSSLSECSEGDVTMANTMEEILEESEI

B1: Compound 31 (peptide)
peptide: HXEGSFTSELATILDXQAARDFIAWLISHKITD
HELM: PEPTIDE1{H.[Aib].E.G.S.F.T.S.E.L.A.T.I.L.D.K.Q.A.A.R.D.F.I.A.W.L.I.S.H.K.I.T.D}|PEPTIDE2{[O=C(O)CCCCCCCCCCCCCCCCC(=O)[*:2]].[gGlu]}$PEPTIDE1,PEPTIDE2,16:R3-2:R2$$$V2.0
SMILES: CC[C@H](C)[C@H](NC(=O)[C@H](Cc1ccccc1)NC(=O)[C@H](CC(=O)O)NC(=O)[C@H](CCCNC(=N)N)NC(=O)[C@H](C)NC(=O)[C@H](C)NC(=O)[C@H](CCC(N)=O)NC(=O)[C@H](CCCCNC(=O)CC[C@H](NC(=O)CCCCCCCCCCCCCCCCC(=O)O)C(=O)O)NC(=O)[C@H](CC(=O)O)NC(=O)[C@H](CC(C)C)NC(=O)[C@@H](NC(=O)[C@@H](NC(=O)[C@H](C)NC(=O)[C@H](CC(C)C)NC(=O)[C@H](CCC(=O)O)NC(=O)[C@H](CO)NC(=O)[C@@H](NC(=O)[C@H](Cc1ccccc1)NC(=O)[C@H](CO)NC(=O)CNC(=O)[C@H](CCC(=O)O)NC(=O)C(C)(C)NC(=O)[C@@H](N)Cc1c[nH]cn1)[C@@H](C)O)[C@@H](C)O)[C@@H](C)CC)C(=O)N[C@@H](C)C(=O)N[C@@H](Cc1c[nH]c2ccccc12)C(=O)N[C@@H](CC(C)C)C(=O)N[C@H](C(=O)N[C@@H](CO)C(=O)N[C@@H](Cc1c[nH]cn1)C(=O)N[C@@H](CCCCN)C(=O)N[C@H](C(=O)N[C@H](C(=O)N[C@@H](CC(=O)O)C(=O)O)[C@@H](C)O)[C@@H](C)CC)[C@@H](C)CC
B2: reference compound B (peptide)
peptide: B1 peptide with T7S, S28Q
HELM: PEPTIDE1{H.[Aib].E.G.S.F.S.S.E.L.A.T.I.L.D.K.Q.A.A.R.D.F.I.A.W.L.I.Q.H.K.I.T.D}|PEPTIDE2{[O=C(O)CCCCCCCCCCCCCCCCC(=O)[*:2]].[gGlu]}$PEPTIDE1,PEPTIDE2,16:R3-2:R2$$$V2.0
SMILES: CC[C@H](C)[C@H](NC(=O)[C@H](Cc1ccccc1)NC(=O)[C@H](CC(=O)O)NC(=O)[C@H](CCCNC(=N)N)NC(=O)[C@H](C)NC(=O)[C@H](C)NC(=O)[C@H](CCC(N)=O)NC(=O)[C@H](CCCCNC(=O)CC[C@H](NC(=O)CCCCCCCCCCCCCCCCC(=O)O)C(=O)O)NC(=O)[C@H](CC(=O)O)NC(=O)[C@H](CC(C)C)NC(=O)[C@@H](NC(=O)[C@@H](NC(=O)[C@H](C)NC(=O)[C@H](CC(C)C)NC(=O)[C@H](CCC(=O)O)NC(=O)[C@H](CO)NC(=O)[C@H](CO)NC(=O)[C@H](Cc1ccccc1)NC(=O)[C@H](CO)NC(=O)CNC(=O)[C@H](CCC(=O)O)NC(=O)C(C)(C)NC(=O)[C@@H](N)Cc1c[nH]cn1)[C@@H](C)O)[C@@H](C)CC)C(=O)N[C@@H](C)C(=O)N[C@@H](Cc1c[nH]c2ccccc12)C(=O)N[C@@H](CC(C)C)C(=O)N[C@H](C(=O)N[C@@H](CCC(N)=O)C(=O)N[C@@H](Cc1c[nH]cn1)C(=O)N[C@@H](CCCCN)C(=O)N[C@H](C(=O)N[C@H](C(=O)N[C@@H](CC(=O)O)C(=O)O)[C@@H](C)O)[C@@H](C)CC)[C@@H](C)CC
B3: Compound 32 (peptide)
peptide: B1 peptide with I27Q, S28Q
HELM: PEPTIDE1{H.[Aib].E.G.S.F.T.S.E.L.A.T.I.L.D.K.Q.A.A.R.D.F.I.A.W.L.Q.Q.H.K.I.T.D}|PEPTIDE2{[CCCCCCCCCCCCCCCC(=O)[*:2]].[bAla]}$PEPTIDE1,PEPTIDE2,16:R3-2:R2$$$V2.0
SMILES: CCCCCCCCCCCCCCCC(=O)NCCC(=O)NCCCC[C@H](NC(=O)[C@H](CC(=O)O)NC(=O)[C@H](CC(C)C)NC(=O)[C@@H](NC(=O)[C@@H](NC(=O)[C@H](C)NC(=O)[C@H](CC(C)C)NC(=O)[C@H](CCC(=O)O)NC(=O)[C@H](CO)NC(=O)[C@@H](NC(=O)[C@H](Cc1ccccc1)NC(=O)[C@H](CO)NC(=O)CNC(=O)[C@H](CCC(=O)O)NC(=O)C(C)(C)NC(=O)[C@@H](N)Cc1c[nH]cn1)[C@@H](C)O)[C@@H](C)O)[C@@H](C)CC)C(=O)N[C@@H](CCC(N)=O)C(=O)N[C@@H](C)C(=O)N[C@@H](C)C(=O)N[C@@H](CCCNC(=N)N)C(=O)N[C@@H](CC(=O)O)C(=O)N[C@@H](Cc1ccccc1)C(=O)N[C@H](C(=O)N[C@@H](C)C(=O)N[C@@H](Cc1c[nH]c2ccccc12)C(=O)N[C@@H](CC(C)C)C(=O)N[C@@H](CCC(N)=O)C(=O)N[C@@H](CCC(N)=O)C(=O)N[C@@H](Cc1c[nH]cn1)C(=O)N[C@@H](CCCCN)C(=O)N[C@H](C(=O)N[C@H](C(=O)N[C@@H](CC(=O)O)C(=O)O)[C@@H](C)O)[C@@H](C)CC)[C@@H](C)CC
B4: Compound 33 (peptide)
peptide: B1 peptide with I27Y, S28Q
HELM: PEPTIDE1{H.[Aib].E.G.S.F.T.S.E.L.A.T.I.L.D.K.Q.A.A.R.D.F.I.A.W.L.Y.Q.H.K.I.T.D}|PEPTIDE2{[O=C(O)CCCCCCCCCCCCCCCCC(=O)[*:2]].[gGlu].[O=C(COCCOCCN[*:1])[*:2]]}$PEPTIDE1,PEPTIDE2,16:R3-3:R2$$$V2.0
SMILES: CC[C@H](C)[C@H](NC(=O)[C@H](Cc1ccccc1)NC(=O)[C@H](CC(=O)O)NC(=O)[C@H](CCCNC(=N)N)NC(=O)[C@H](C)NC(=O)[C@H](C)NC(=O)[C@H](CCC(N)=O)NC(=O)[C@H](CCCCNC(=O)COCCOCCNC(=O)CC[C@H](NC(=O)CCCCCCCCCCCCCCCCC(=O)O)C(=O)O)NC(=O)[C@H](CC(=O)O)NC(=O)[C@H](CC(C)C)NC(=O)[C@@H](NC(=O)[C@@H](NC(=O)[C@H](C)NC(=O)[C@H](CC(C)C)NC(=O)[C@H](CCC(=O)O)NC(=O)[C@H](CO)NC(=O)[C@@H](NC(=O)[C@H](Cc1ccccc1)NC(=O)[C@H](CO)NC(=O)CNC(=O)[C@H](CCC(=O)O)NC(=O)C(C)(C)NC(=O)[C@@H](N)Cc1c[nH]cn1)[C@@H](C)O)[C@@H](C)O)[C@@H](C)CC)C(=O)N[C@@H](C)C(=O)N[C@@H](Cc1c[nH]c2ccccc12)C(=O)N[C@@H](CC(C)C)C(=O)N[C@@H](Cc1ccc(O)cc1)C(=O)N[C@@H](CCC(N)=O)C(=O)N[C@@H](Cc1c[nH]cn1)C(=O)N[C@@H](CCCCN)C(=O)N[C@H](C(=O)N[C@H](C(=O)N[C@@H](CC(=O)O)C(=O)O)[C@@H](C)O)[C@@H](C)CC

Biological target: T1, human GLP-2 receptor (hGLP2-R)
Experiment: cell-based or functional assay

EC50 GLP-2 (nM); cAMP response [nM] | Binder
0.24 | B1
0.28 | B2
0.46 | B3
0.072 | B4

Biological target: human glucagon-like peptide 1 receptor (GLP-1 R) (human, UniProt P43220 24-463)
Experiment: cell-based or functional assay

EC50 GLP-1 (nM); cAMP response [nM] | Binder
0.27 | B1
3.9 | B2
0.38 | B3
0.85 | B4
